{"source": "paper PMC9723610", "key": {"hG3BP1 [1]": {"target": "T1, hG3BP1 (human, UniProt Q13283 1-466)", "T1 sequence (Q13283 whole entry)": "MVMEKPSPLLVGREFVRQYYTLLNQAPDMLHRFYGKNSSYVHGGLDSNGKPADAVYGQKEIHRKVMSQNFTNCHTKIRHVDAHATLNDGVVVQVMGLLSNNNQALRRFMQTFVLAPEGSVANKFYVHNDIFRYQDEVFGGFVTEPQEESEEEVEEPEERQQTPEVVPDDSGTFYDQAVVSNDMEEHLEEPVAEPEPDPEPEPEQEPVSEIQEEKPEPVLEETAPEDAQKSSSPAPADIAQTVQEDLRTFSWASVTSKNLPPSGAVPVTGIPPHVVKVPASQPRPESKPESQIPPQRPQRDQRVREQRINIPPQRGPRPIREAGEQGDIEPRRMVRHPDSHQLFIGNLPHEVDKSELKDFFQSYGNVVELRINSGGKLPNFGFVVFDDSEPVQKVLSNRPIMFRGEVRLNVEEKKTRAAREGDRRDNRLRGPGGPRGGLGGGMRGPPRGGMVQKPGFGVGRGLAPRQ", "assay": "EMSA"}, "hG3BP1 [2]": {"target": "T1, hG3BP1", "assay": "EMSA", "remark": "listed apart in the source"}}, "note": "Read-outs that look alike come from different tables or passages of the source.", "data": [{"binder": "GGGUUAGGGUUAGGGUUAGGG (structured_RNA)", "note": "[rOG0 rG4]", "values": [{"measurement": "binding result", "setting": "hG3BP1 [1]", "result": "binds"}]}, {"binder": "GUGUGGGAGGGGCGGGUCUGGGUGCG (structured_RNA)", "note": "[NRAS rG4 (rNRAS)]", "values": [{"measurement": "binding result", "setting": "hG3BP1 [1]", "result": "binds"}]}, {"binder": "AGGAGGAGGAGGAGG (structured_RNA)", "note": "[r(AGG)5 rG4]", "values": [{"measurement": "binding result", "setting": "hG3BP1 [2]", "result": "binds"}]}, {"binder": "AGGGGGCCGUGGGGUGGGAGCUGGGG (structured_RNA)", "note": "[BCL2 rG4 (rBCL2)]", "values": [{"measurement": "binding result", "setting": "hG3BP1 [1]", "result": "binds"}]}]}
